Source: article PMC2914671, “A VLP-based vaccine targeting domain III of the West Nile virus E protein protects from lethal infection in mice” (Virology Journal, 2010)

Target: the molecule itself
Assay: transmission electron microscopy; purified AP205 VLPs adsorbed onto carbon-Formvar-coated grids, stained with 2% phosphotungstic acid

B1: AP205 virus-like particles (recombinantly expressed coat protein of bacteriophage AP205) (natural protein)
chain: MANKPMQPITSTANKIVWSDPTRLSTTFSASLLRQRVKVGIAELNNVSGQYVSVYKRPAPKPEGCADACVIMPNENQSIRTVISGSAENLATLKAEWETHKRNVDTLFASGNAGLGFLDPTAAIVSSDTTA
notes: coat protein of the Acinetobacter bacteriophage AP205; monomer 14.0 kDa; The VLPs hold about 25-30 ug of host cell RNA per 100 ug of coat protein; also called AP205 VLPs; AP205 VLP carrier; source: E. coli, purified from cleared lysates (Fractogel TMAE anion exchange, hydroxyapatite); copies: 180
binding result: binds
